For two substances, ND50 of cell killing, modified L929 assay without TNF-α and ND50 of induced cytotoxicity, modified L929 assay without TNF-α results are on record in US20080008713A1.

In this experiment the target is mouse TNFR1 on L929 cells (mouse) (UniProt P25118). As to the kind of experiment: cell-based or functional assay.
Chain of mouse TNFR1 on L929 cells (mouse) (P25118 30-454): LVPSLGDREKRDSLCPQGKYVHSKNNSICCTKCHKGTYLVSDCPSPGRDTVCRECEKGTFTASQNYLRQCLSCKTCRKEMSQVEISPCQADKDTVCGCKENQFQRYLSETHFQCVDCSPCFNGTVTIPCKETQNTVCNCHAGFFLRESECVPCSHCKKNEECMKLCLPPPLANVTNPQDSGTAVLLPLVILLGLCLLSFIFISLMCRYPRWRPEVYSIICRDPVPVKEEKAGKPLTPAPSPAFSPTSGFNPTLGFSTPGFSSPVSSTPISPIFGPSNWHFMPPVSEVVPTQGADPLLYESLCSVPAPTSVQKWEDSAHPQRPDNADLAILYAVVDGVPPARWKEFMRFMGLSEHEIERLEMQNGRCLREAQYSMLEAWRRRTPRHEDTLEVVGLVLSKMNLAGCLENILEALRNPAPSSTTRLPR

Take “anti-TNFR1 antibody MAB430 (R&D Systems)”: the ND50 of cell killing, modified L929 assay without TNF-α turned out to be 10 nM.
With “anti-TNFR1 antibody AF-425-PB (R&D Systems)”, the ND50 of induced cytotoxicity, modified L929 assay without TNF-α came out at 100 pM.
